Among the data in publication PMC5322768 (Developmental dynamics : an official publication of the …, 2016) are precipitating fraction values, retold here.

The target of test [1] is TMEM47-GFP (murine TMEM47 tagged with GFP) (murine) (UniProt Q9JJG6). The test can be described thus: co-IP.
The target in test [2] is TMEM47-GFP (murine TMEM47 tagged with GFP) (murine, UniProt Q9JJG6 1-181). Put plainly: co-IP.
Sequence of TMEM47-GFP (murine TMEM47 tagged with GFP) (Q9JJG6 whole entry): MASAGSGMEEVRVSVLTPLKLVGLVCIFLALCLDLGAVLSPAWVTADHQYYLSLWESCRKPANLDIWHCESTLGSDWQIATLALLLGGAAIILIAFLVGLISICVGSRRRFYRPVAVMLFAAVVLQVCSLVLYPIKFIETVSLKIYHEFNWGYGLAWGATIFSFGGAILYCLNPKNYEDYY

Sequence of TMEM47-GFP (murine TMEM47 tagged with GFP) (murine) (Q9JJG6 whole entry): as above

For the molecule α-catenin (natural protein), in test [1], the precipitating fraction is less than 5%.

B1: Par6B (natural protein, canine (endogenous in MDCK), UniProt A0A8I3PSX6 1-370, looked up)
chain: MNRSHRHGAGSGCLGTMEVKSKFGAEFRRFSLERSKPGKFEEFYGLLQHVHKIPNVDVLVGYADIHGDLLPINNDDNYHKAVSTANPLLRIFIQKKEEADYSAFGTDTLIKKKNVLTNVLRPDNHRKKPHIVISMPQDFRPVSSIIDVDILPETHRRVRLYKYGTEKPLGFYIRDGSSVRVTPHGLEKVPGIFISRLVPGGLAQSTGLLAVNDEVLEVNGIEVSGKSLDQVTDMMIANSRNLIITVRPANQRNNVVRNSRTSGSSGQSTDNSLLGYPQQVEPSFEPEDEDSDEDDIIIEDNGVPQQIPKAVPNTESFESLTQIELSFESGQNGFIPSNEVSLAPIASGTNTETRAPDQKLLEEDGTIITL
In test [2], B1 returned a precipitating fraction of less than 5%.

B2: aPKCλ–myc (myc-tagged aPKCλ) (enzyme, murine, UniProt Q62074 1-595, looked up)
chain: MPTQRDSSTMSHTVACGGGGDHSHQVRVKAYYRGDIMITHFEPSISFEGLCSEVRDMCSFDNEQPFTMKWIDEEGDPCTVSSQLELEEAFRLYELNKDSELLIHVFPCVPERPGMPCPGEDKSIYRRGARRWRKLYCANGHTFQAKRFNRRAHCAICTDRIWGLGRQGYKCINCKLLVHKKCHKLVTIECGRHSLPPEPMMPMDQTMHPDHTQTVIPYNPSSHESLDQVGEEKEAMNTRESGKASSSLGLQDFDLLRVIGRGSYAKVLLVRLKKTDRIYAMKVVKKELVNDDEDIDWVQTEKHVFEQASNHPFLVGLHSCFQTESRLFFVIEYVNGGDLMFHMQRQRKLPEEHARFYSAEISLALNYLHERGIIYRDLKLDNVLLDSEGHIKLTDYGMCKEGLRPGDTTSTFCGTPNYIAPEILRGEDYGFSVDWWALGVLMFEMMAGRSPFDIVGSSDNPDQNTEDYLFQVILEKQIRIPRSLSVKAASVLKSFLNKDPKERLGCHPQTGFADIQGHPFFRNVDWDMMEQKQVVPPFKPNISGEFGLDNFDSQFTNEPVQLTPDDDDIVRKIDQSEFEGFEYINPLLMSAEECV
In test [2], B2 displayed a precipitating fraction of less than 5%.

B3: β-catenin (natural protein, canine (endogenous in MDCK), UniProt B6V8E6 1-781, looked up)
chain: MATQADLMELDMAMEPDRKAAVSHWQQQSYLDSGIHSGATTTAPSLSGKGNPEEEDVDTTQVLYEWEQGFSQSFTQEQVADIDGQYAMTRAQRVRAAMFPETLDEGMQIPSTQFDAAHPTNVQRLAEPSQMLKHAVVNLINYQDDAELATRAIPELTKLLNDEDQVVVNKAAVMVHQLSKKEASRHAIMRSPQMVSAIVRTMQNTNDVETARCTAGTLHNLSHHREGLLAIFKSGGIPALVKMLGSPVDSVLFYAITTLHNLLLHQEGAKMAVRLAGGLQKMVALLNKTNVKFLAITTDCLQILAYGNQESKLIILASGGPQALVNIMRTYTYEKLLWTTSRVLKVLSVCSSNKPAIVEAGGMQALGLHLTDPSQRLVQNCLWTLRNLSDAATKQEGMEGLLGTLVQLLGSDDINVVTCAAGILSNLTCNNYKNKMMVCQVGGIEALVRTVLRAGDREDITEPAICALRHLTSRHQEAEMAQNAVRLHYGLPVVVKLLHPPSHWPLIKATVGLIRNLALCPANHAPLREQGAIPRLVQLLVRAHQDTQRRTSMGGTQQQFVEGVRMEEIVEGCTGALHILARDVHNRIVIRGLNTIPLFVQLLYSPIENIQRVAAGVLCELAQDKEAAEAIEAEGATAPLTELLHSRNEGVATYAAAVLFRMSEDKPQDYKKRLSVELTSSLFRTEPMAWNETADLGLDIGAQGEPLGYRQDDPSYRSFHSGGYGQDALGMDPMMEHEMGGHHPGADYPVDGLPDLGHAQDLMDGLPPGDSNQLAWFDTDL
Molecule B3 showed a precipitating fraction in test [2] of less than 5%.
